Reference: the DeepSol protein solubility set

Assay: soluble on expression in E. coli; label from the status in PepcDB or PDB records
For “MIDISVVIPLLNEAESIPELFAWIRRVMNEHGYSYEVIFVDDGSTDGSWSVIERLQAEHPEVKGIKFRRNYGKSAGLQCGFARTQGQVVITMDADLQDSPDEIPELYRMVTEGGYDLVSGWKRKRYDPLFSKNLPSKLFNATARKLSGIKLHDFNCGLKAYRHEVVENIELYNDMHRYIPYLAKSAGFGRIGEKVVQHQARKYGSSKFGISRFFNGYLDLLTLWFISKFGRKPMH”, the “soluble on expression in E. coli” value was “not soluble”.
With “MKFLPLLALLISPFVSALTLDDLQQRFTEQPVIRAHFDQTRTIKDLPQPLRSQGQMLIARDQGLLWDQTSPFPMQLLLDDKRMVQVINGQPPQIITAENNPQMFQFNHLLRALFQADRKVLEQNFRVEFADKGEGRWTLRLTPTTTPLDKIFNTIDLAGKTYLESIQLNDKQGDRTDIALTQHQLTPAQLTDDERQRFAAQ” the “soluble on expression in E. coli” value was “not soluble”.
With “MDFISSLIVGCAQVLCESMNMAERRGHKTDLRQAITDLETAIGDLKAIRDDLTLRIQQDGLEGRSCSNRAREWLSAVQVTETKTALLLVRFRRREQRTRMRRRYLSCFGCADYKLCKKVSAILKSIGELRERSEAIKTDGGSIQVTCREIPIKSVVGNTTMMEQVLEFLSEEEERGIIGVYGPGGVGKTTLMQSINNELITKGHQYDVLIWVQMSREFGECTIQQAVGARLGLSWDEKETGENRALKIYRALRQKRFLLLLDDVWEEIDLEKTGVPRPDRENKCKVMFTTRSIALCNNMGAEYKLRVEFLEKKHAWELFCSKVWRKDLLESSSIRRLAEIIVSKCGGLPLALITLGGAMAHRETEEEWIHASEVLTRFPAEMKGMNYVFALLKFSYDNLESDLLRSCFLYCALFPEEHSIEIEQLVEYWVGEGFLTSSHGVNTIYKGYFLIGDLKAACLLETGDEKTQVKMHNVVRSFALWMASEQGTYKELILVEPSMGHTEAPKAENWRQALVISLLDNRIQTLPEKLICPKLTTLMLQQNSSLKKIPTGFFMHMPVLRVLDLSFTSITEIPLSIKYLVELYHLSMSGTKISVLPQELGNLRKLKHLDLQRTQFLQTIPRDAICWLSKLEVLNLYYSYAGWELQSFGEDEAEELGFADLEYLENLTTLGITVLSLETLKTLFEFGALHKHIQHLHVEECNELLYFNLPSLTNHGRNLRRLSIKSCHDLEYLVTPADFENDWLPSLEVLTLHSLHNLTRVWGNSVSQDCLRNIRCINISHCNKLKNVSWVQKLPKLEVIELFDCREIEELISEHESPSVEDPTLFPSLKTLRTRDLPELNSILPSRFSFQKVETLVITNCPRVKKLPFQERRTQMNLPTVYCEEKWWKALEKDQPNEELCYLPRFVPN” the “soluble on expression in E. coli” value was “not soluble”.
In the case of “KYHHLTLTQRAGSAVPTSNKVLDVKGQYLESGLSAPLIAEMRKHLKAGNQVMLFLNRRGFSPALMCHECGWIAECKRCDAYYTFHQYSNEIRCHHCGSQQPVIHQCQGC”, the “soluble on expression in E. coli” value is reported as “not soluble”.
In the case of “MSYFKNAFNQKSLIDDSSVYLEPCSSSNFIELKRMHYNEENTKKTWDIIKSLDSVAVLLYEKESDCFVIVKQFRPAIYARRFHFKCDQDQTIDGYTYELCAGLVDKANKSLEEIACEEALEECGYQISPKNLETIGQFYSATGLSGSLQTLYYAEVHKNLKVSKGGGIDTERIEVLFLERSKALDFIMDFQYAKTTGLSLAILWHLKKFKNV”, the “soluble on expression in E. coli” value is reported as “not soluble”.
For “MSNSAKLIDVITKVALPIGIIASGIQYSMYDVKGGSRGVIFDRINGVKQQVVGEGTHFLVPWLQKAIIYDVRTKPKSIATNTGTKDLQMVSLTLRVLHRPEVLQLPAIYQNLGLDYDERVLPSIGNEVLKSIVAQFDAAELITQREIISQKIRKELSTRANEFGIKLEDVSITHMTFGPEFTKAVEQKQIAQQDAERAKFLVEKAEQERQASVIRAEGEAESAEFISKALAKVGDGLLLIRRLEASKDIAQTLANSSNVVYLPSQHSGGGNSESSGSPNSLLLNIGR”, the “soluble on expression in E. coli” value was “not soluble”.
For “MKSRYLLFFLPLIVAKYTSAATMQPFHSPEESVNSQFYLPPPPGNDDPAFRYDKEAYFKGYAIKGSPRWKQAAEDADISVENIARIFSPVVGAKISPKDTPETWNMLQNLLKVGGYYATASAKKYYMRTRPFVLFNHSTCRPEDENTLRKDGSYPSGHTAYSTLLALVLSQARPERAQELARRGWEFGQSRVICGAHWQSDVDAGRYVGAVEFARLQTIPAFQKSLAKVREELNDKNNLLSKEERPELNY”, the “soluble on expression in E. coli” value was “soluble”.
For “MGSDKIHHHHHHGCSDSMTEESDSEQRIPIVFGTQVATRAVVENNKEGMDNFTLWGWVRESDGPKLFFDAVPVTPSGNYGEKRFWAVGRPYGFYAVHPEKMKENNIATEVSCNDKGELRVTGFDSSEMGKGAVDLMTAAKTDVVYEGGGMMAPVLLAFKHELAQVKFTVCTGEKQAEVSDIRLLGVDYKGDLLWTPEESTWQNRINCTEEGTPFVRSESVRIEAGSSVTVLDSVLLLPQPVTEHVAVTFKYAYAGKPLSEAKEAMVYLDVAQTTEWIKSSTYHYKITLPAGDADITVKVSVGDWDSRDISADW”, the “soluble on expression in E. coli” value was “not soluble”.
In the case of “MGHHHHHHSHRRERACPERALDLENIMRKFSGSCRCCAKQIKFYRMRHHYKSCKKYQDEYGVSSIIPNFQISQDSVGNSNRSETSTSDNTETYQENTSSSGHPTFKCPLCQESNFTRQRLLDHCNSNHLFQIVPVTCPICVSLPWGDPSQITRNFVSHLNQRHQFDYGEFVNLQLDEETQYQTAVEESFQVNI”, the “soluble on expression in E. coli” value is reported as “not soluble”.
In the case of “MVNRFREKLKPDQYLCRIEGTQFVLVSLENDVSNITQIADELRNVVSKPIMIDDNPFPLTLSIGISYDVGKNRDYLLSTAHNAMDYIRKNGGNGWQFFSPAMNEMVKERLVLGAALKEAISNNQLKLVYQPQIFAETGELYGIEALARWHDPQHGHVPPSRFIPLAEEIGEIENIGRWVIAEACRQLAEWRSQNIHIPALSVNLSALHFRSNQLPNQVSDAMQAWGIDGHQLTVEITESMMMEHDTEIFKRIQILRDMGVGLSVDDFGTGFSGLSRLVSLPVTEIKIDKSFVDRCLTEKRILALLEAITSIGQSLNLTVVAEGVETKEQFEMLRKIHCRVIQGYFFSRPLPAEEIPGWMSSVLPLKI”, the “soluble on expression in E. coli” value is reported as “not soluble”.
For “MAHHHHHHMSAARDDSAPCAVPSTLWRECLKQYDYGPDRPKGACEAHRTKFYDCVKDWTARTQHKSYSYTQFELPKSCGHEAEKLHQCMMMNMFEVGHCQRDMAVLKRCAARVDPEVRKYLQDDEAIADLENDIDEATGLKRLWYKVIGKL”, the “soluble on expression in E. coli” value was “soluble”.
In the case of “MGSDKIHHHHHHAQTCGATYITEFQYDLKKRTNWCNLLRLDAYVPIGTKGILEFASIHVYKTRPERIINDLQTFSNIEEDNLPCAIAVLGYTRLVGNVTLFAGIRNLNEDYFTTPCMSLFTNSSCGIFPTLSANYPIANYPLAALCLDYKMTLGRFGIESSLYNGKGYNGWSKGKHPFTFNPRKDGVFSITEINYQTEYGKCFGGFSLHTNGDMPDVAGEWKTREREKKVSPKMTFAWWGYAERKLWSRVRQEVNLLVQYTRTSSVFSECRNYMGAGVTWIYVPGGQKRHEAGLFLSAAQFKSCNEVAGEVTYRYSFNRDTYIQPAIHLIKNGGGLHEVFLIRMGYILNGGRVR”, the “soluble on expression in E. coli” value is reported as “not soluble”.
With “MVSARLIFVPLHARPSGISSATTGYVPWRSFIYRNGGGRPVQSSRPWLNMQQTLRITEIFYSLQGETRTAGLPTVFVRLTGCPLRCHYCDTAYAFSGGDVVSLDAIFERVAAYKPRYICVTGGEPLAQPNCISLLERLCDAGYEVSLETSGALDVSRVDPRVSKVLDLKTPGSGEVGRNRYENIPLLTDNDQVKFVVCSREDYDWAVSKLIEYRLDQRAGEVLFSPSHHQVSARELADWIVADNLPVRLQLQLHKILWNDEPGH” the “soluble on expression in E. coli” value was “soluble”.
In the case of “GSHMRKIQRYVRKDGKCNVHHGNVREKRAETLVFSTHAVISMRDGKLCLMFRVGDLRNSHIVEASIRAKLIKSKQTSEGEFIPLNQTDINVGYYTGDDRLFLVSPLIISHEINQQSPFWEISKAQLPKEELEIVVILEGMVEATGMTCQARSSYITSEILWGYRFTPVLTLEDGFYEVDYNSFHETYETSTPSLSAKELAELANRAEV”, the “soluble on expression in E. coli” value is reported as “soluble”.
In the case of “MSSVGAGFRLARAGWVLVREGVIAALPGEELSGLPKFGWQLARLFTRRRALAYQRSDRLAKAVVRLGPSYVKLGQFLATRPDVVGNDMALDLAMLQDKMHTFPKAEAVAAIEASLGRKVRDLYAEFGLEHHHHHH”, the “soluble on expression in E. coli” value is reported as “not soluble”.
In the case of “MLVNTKAKVGVFSIALGAYLPQFPSLVPEFEAQYEAFKKTIPDTVEIIDGGMVTTKEQSMVAGDKFRAADVDIVFLQMLTYATSYNMLPAIRDLDVPVVLVNVQKLKALDYDHTDIAAWLGEGYACGAVGEAVADLERAGKRHAVITGVVEGGDPAVQAEIEDWCKAAQVRRRFRDTNIAQIGRPYPGMMDLYIDETNLYNRMFLYTKQFDWEKMWAIADDITDEEAIRAKAQDILDTFDIEDGGTIEKVWDMAKYVVAFEKWVKDEHLSMVASHYDGFAQGKAGVLDSMLIPAFSMLIKQGTACAVEGDMKVAMAMSILKTISGTGQLSEMYSIDFNEDICIIGHSGSGDADISDKKPTMKIVPVFHGKTGGGYLTQFYPYTGPVTYLAITQDKDGHFKFVVAEGVNEEGPILSFGDTNMRTRFTCGAREFVNRWSEAGPTHHMAAATGRHIDTILKVAKIFNIPVDIVTR”, the “soluble on expression in E. coli” value is reported as “not soluble”.
With “GNHHHHHMMLIKKIEELKNSEIKDIIDKRIQEFKSFKNKSNEEWFKELCFCILTANFTAEGGIRIQKEIGDGFLTLPREELEEKLKNLGHRFYRKRAEYIVLARRFKNIKDIVESFENEKVAREFLVRNIKGIGYKEASHFLRNVGYDDVAIIDRHILRELYENNYIDEIPKTLSRRKYLEIENILRDIGEEVNLKLSELDLYIWYLRTGKVLK” the “soluble on expression in E. coli” value was “soluble”.
With “MTRACNLYVFKNKYVSFNLLDSPNSNPKLLKISLPFNFMDEFEGLLKAVGSAPWYKLIGMVPKLQGDRVVVEMEIDRSKHLQALGTTHGGAIASVLDSAIGLNVNREVVKMGKTAVTAQLNIHYIRPVTEGKIVGVGMPMHIGSKVTVGYGEVRNEEGELVAAGTATFYIIDRRFRD” the “soluble on expression in E. coli” value was “soluble”.
In the case of “MAKGIPYGISDFSRLIDQNYYYVDKTHFIPQIEEIANYLFLIRPRRFGKSVFLTMMRAYYDISQKDRFEERFGNLWIGKHPTPLQGIYQVLYFDFSKANLGRGSLEDNFNNYCCIQLNDFFSTYREYYQGEKELEQIIASTEAATKLHWLEATARRLGHLLYLIIDEYDNFTNVILSEQGKNLFRDLTHASGFYREYFKQFKGMFERIFLMGVSPVTLDDLSSGYNIDWNISVDPHFNMMMGFSETDVREMFGYYQKEGMLKGDIDAMINEMKPWYDNYCFAEASLKTDPRMFNCDMTLYYLRHRVNFDASPKELIDKNIRTDYSKLKMLARLDHENVSGEDRMSTIEEIAAKGEILVNLHTSFPAEKIVETDNFRSLLYYYGLLTMCGTRGDRIVMCIPNNCVREQYFGFLREYYQQRKEVFLPHLKDLIDDMAFDGQWRPLFEYIALAYKENSAIRDAIEGEHNLQGFFKAYLALASYYLVQPELEMNYGYCDFFLLPDKSRYPDTAHSYILELKYLPRTATDKELEEQAEEGRGQLKQYSRDKKVTTISEGTALHCILLQFKGWELIKCEEVSPKC”, the “soluble on expression in E. coli” value is reported as “not soluble”.
In the case of “MAKEFQLTHIFKKVSEFKDGECRCGPLEEHFNVEWLLYINRKDDELAVFLGCNSLQGTEETTLSIYVELKFTLKNSIGTRVTKIAKCLLSNKSTESDFGLNKFIGWETLLKDYLIDDSIIIEAKIKITKMTGFPRKELRSFDESSEEYSDMIIAVGDRKFYVLKQLLASNSTHFQSLIPLDFEEMDCEGKSEITLPDINPSDFQCLLEVLYGEPAMDDENVEGILHSAHMYKMTKVIRNCEEFLSNKSEKPMRDKFKIAKQYQLESLKKSCLSKIQTIQDIKSAMAGDLSDMDATVVAALLEKSVTIEPPSKNGRPY”, the “soluble on expression in E. coli” value is reported as “soluble”.
